Test results from publication PMC2408619.

How the values were obtained:
[1] = molecular target: Biotinylated Prn-E (pertactin residues 38-640 with N-terminal biotinylation sequence) (B. bronchiseptica) (UniProt Q03035); test: SPR; Biacore 3000, 25 °C; ~100 RU biotinylated Prn-E on a streptavidin chip; Mtd proteins injected in 150 mM NaCl, 50 mM Tris pH 8.0, 0.005% Tween 20 at 30 μl/min; single-site model, global fit, six concentrations, duplicate
[2] = molecular target: His-tagged ectodomain of B. bronchiseptica pertactin (Prn-E; residues 38-640) (B. bronchiseptica) (UniProt Q03035); test: pull-down; varying concentrations of Mtd incubated with 80 μM His-tagged Prn-E (5 min, 25 °C) before adding Ni2+-NTA beads; apparent Kd of Mtd-M1 estimated against Mtd-P6 with the Langmuir isotherm
[3] = molecular target: His-tagged ectodomain of B. bronchiseptica pertactin (Prn-E; residues 38-640) (B. bronchiseptica) (UniProt Q03035); test: not stated; unpublished data; stoichiometry of Mtd-P6 with pertactin
[4] = molecular target: Pertactin (Prn-E) ectodomain (Bordetella bronchiseptica) (UniProt Q03035); test: ITC; settings: cited from earlier work
[5] = molecular target: Biotinylated Prn-E (pertactin residues 38-640 with N-terminal biotinylation sequence) (B. bronchiseptica) (UniProt Q03035); test: SPR; settings: natural protein

Work on “Bordetella bacteriophage major tropism determinant variant Mtd-M1 (from UniProt Q775D6 1-381) (natural protein)” yielded a Kd [1] greater than 450 µM and a Kd [2] of 500 µM.

Work on “Bordetella bacteriophage major tropism determinant variant Mtd-P6 (from UniProt Q775D6 1-381) (natural protein)” yielded a Kd [1] of 5.19 µM, a kon [1] of 10000 M⁻¹ s⁻¹ and a stoichiometry N (Mtd-P6 protomers per pertactin) [3] of 3.

For Mtd-P1 (from UniProt Q775D6), the Kd [4] is given as 3.04 µM.

“Bordetella bacteriophage major tropism determinant variant Mtd-P6 (from UniProt Q775D6 1-381)” gave a koff [5] of 0.112 s⁻¹.
